Experiment [1] concerns the target T1, FcγRI (R&D, cat# BAF1257) (UniProt P12314 16-288, limits assumed).
T1 construct: Bought soluble reagent, added at 2 ug/ml; also called FcγR1
The experiment is described as follows: ELISA, sample coated on strip, FcγRI added, detected with biotinylated anti-FcγRI and streptavidin-HRP. The method, then: (§1) To investigate whether hFc-5-fused proteins bind to FcγRI and C1q, MabThera® (Rituximab, Roche), hIgG1 (Calbiochem, Cat#, 400120), Enbrel® (etanercept, Amgen), EPO-hFc-5, G-CSF-hFc-5 and p40N303Q-hFc-5 were serially diluted (from 2 ug/ml to 16 ng/ml with 2-fold) and coated on the 8 well strip (COSTAR, New York) overnight at 4° C. To make a standard curve, FcγRI (R&D, cat# BAF1257) or C1q (AbD serotech, Cat#. 2221-5504) were also serially diluted (from 2 ug/ml to 32 ng/ml with 2-fold) and coated on the 8 well strip (COSTAR, New York) overnight at 4° C. After washing each strip of samples with washing buffer (PBS containing 0.05% tween) and blocking with 10% FBS in PBS for 1 hour at RT, FcγRI or C1q were added into each well at 2 ug/ml following incubation for 2 hours at room temperature (RT). All strips were washed with washing buffer. For C1q binding test, HRP conjugated anti-C1q (AbD serotech, cat#. 2221-5004P) was added into each well at 2.5 ug/ml following 30 min incubation at RT under dark condition. For FcγRI binding test, biotinylated anti-FcγRI (R&D, cat#. 1257-FC) was added into each well at 2 ug/ml following 1 hour incubation at RT. After washing them with washing buffer, Streptavidine-HRP (BD, cat#. 554066) diluted with 3,000 fold was added into each strip following 30 minute incubation at RT under dark condition. […]

Experiment [2] has as its target T2, C1q (AbD serotech, Cat#. 2221-5504) (UniProt P02745 23-245; P02746 28-253; P02747 29-245).
T2 construct: Bought C1q, added at 2 ug/ml
Kind of experiment: ELISA, sample coated on strip, C1q added, detected with HRP conjugated anti-C1q. The protocol:
as §1
A general note: In an ELISA, binding on a coated surface is turned into a signal by an enzyme label.

We go through one molecule from US20080300188A1 (GENEXINE, published 2008).

T1 sequence (P12314 16-288 limits assumed): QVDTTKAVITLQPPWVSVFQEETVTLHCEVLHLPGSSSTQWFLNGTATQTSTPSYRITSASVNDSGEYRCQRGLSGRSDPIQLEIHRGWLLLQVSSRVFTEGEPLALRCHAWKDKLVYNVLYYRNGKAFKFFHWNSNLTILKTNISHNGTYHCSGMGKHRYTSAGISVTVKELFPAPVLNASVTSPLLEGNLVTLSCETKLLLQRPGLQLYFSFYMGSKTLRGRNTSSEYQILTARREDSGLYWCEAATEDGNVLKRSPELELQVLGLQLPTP
T2 sequence (P02745 23-245 limits assumed, chain 1 of 3): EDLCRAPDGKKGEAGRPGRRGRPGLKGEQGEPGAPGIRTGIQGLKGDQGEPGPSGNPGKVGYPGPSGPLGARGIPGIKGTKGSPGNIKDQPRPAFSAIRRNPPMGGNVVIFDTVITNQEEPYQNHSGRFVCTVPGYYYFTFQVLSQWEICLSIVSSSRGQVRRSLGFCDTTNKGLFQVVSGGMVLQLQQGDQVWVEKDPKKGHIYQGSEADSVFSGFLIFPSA
T2 sequence (P02746 28-253 limits assumed, chain 2 of 3): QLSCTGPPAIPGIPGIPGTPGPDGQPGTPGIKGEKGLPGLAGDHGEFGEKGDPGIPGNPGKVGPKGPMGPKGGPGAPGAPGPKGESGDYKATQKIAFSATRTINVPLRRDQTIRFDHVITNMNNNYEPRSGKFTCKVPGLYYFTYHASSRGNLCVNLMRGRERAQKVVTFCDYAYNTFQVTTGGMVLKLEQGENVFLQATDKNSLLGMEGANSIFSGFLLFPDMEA
T2 sequence (P02747 29-245 limits assumed, chain 3 of 3): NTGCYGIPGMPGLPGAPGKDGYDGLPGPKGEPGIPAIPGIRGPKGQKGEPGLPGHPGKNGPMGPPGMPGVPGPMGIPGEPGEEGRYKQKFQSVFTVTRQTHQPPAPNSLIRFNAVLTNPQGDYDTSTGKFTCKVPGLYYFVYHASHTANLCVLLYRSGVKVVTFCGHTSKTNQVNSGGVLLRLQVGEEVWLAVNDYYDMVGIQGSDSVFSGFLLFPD

B1: p40N303Q-hFc-5 (Fc fusion)
chain: IWELKKDVYVVELDWYPDAPGEMVVLTCDTPEEDGITWTLDQSSEVLGSGKTLTIQVKEFGDAGQYTCHKGGEVLSHSLLLLHKKEDGIWSTDILKDQKEPKNKTFLRCEAKNYSGRFTCWWLTTISTDLTFSVKSSRGSSDPQGVTCGAATLSAERVRGDNKEYEYSVECQEDSACPAAEESLPIEVMVDAVHKLKYENYTSSFFIRDIIKPDPPKNLQLKPLKNSRQVEVSWEYPDTWSTPHSYFSLTFCVQVQGKSKREKKDRVFTDKTSATVICRKQASISVRAQDRYYSSSWSEWASVPCSRNTGRGGEEKKKEKEKEEQEERETKTPECPSHTQPLGVFLFPPKPKDTLMISRTPEVTCVVVDVSQEDPEVQFNWYVDGVEVHNAKTKPREEQFNSTYRVVSVLTVLHQDWLNGKEYKCKVSNKGLPSSIEKTISKAKGQPREPQVYTLPPSQEEMTKNQVSLTCLVKGFYPSDIAVEWESNGQPENNYKTTPPVLDSDGSFFLYSRLTVDKSRWQEGNVFSCSVMHEALHNHYTQKSLSLSLGK
notes: also called human p40N303Q-hFc-5
With B1, the binding result in experiment [1] and in experiment [2] was “no binding” in each case.
